The data set is described as follows: yeast display, Sf9 membrane polyspecificity reagent, FACS + sequencing; frameworks hold sequencing errors. The essentials: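 Galactose-induced (36–48 hours) yeast carrying a synthetic nanobody display library were exposed to 10% biotinylated, detergent-solubilized Sf9 membrane reagent at 4 °C for 1 hour. FACS followed streptavidin microbead enrichment, using low and high (top ~1%) gates for expression (anti-HA) and reagent binding (streptavidin). Colony PCR, MiSeq 2 × 250 sequencing and CDR-length filtering followed. Labels for polyreactivity reflect the gate of origin.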
“QVQLVESGGGFVQAGGSLRLSCAASGRTFRKYAMGWYRQAPGKERELVAAITSSGGSTYYADSVKGRFTISRDNAKNTVYLQMNSLKPEDTAVYYCAAGRHSEDNYWGQGTQVTVSS”: the “polyreactivity (PSR sort gate)” value is listed as “high polyreactivity”.
On to “QVQLVESGGGLVQAGGSLRLSCAASGSTLYPYAMGWYRQAPGKERELVAVITLRGGSTYYADSVKGRFTISRDNAKNTVYLQMNSLKPEDTAVYYCATGNSKGRRTVRYGYWGQGTQVTVSS”, for which the “polyreactivity (PSR sort gate)” value is listed as “high polyreactivity”.
To “QVQLVESGGGLVQAGGSLRLSCAASGRTFGYYAMGWYRQAPGKERELVATITWSGGSTYYADSVKGRFTISRDNAKNTVYLQMNSLKPEDTAVYYCATGQYGYWYGTENDYWGQGTQVTVSS” belongs “low polyreactivity”; to “QVQLVESGGGLVQAGGSLRLSCAASGRTFDRYAMGWYRQAPGKERELVAAITWSGGRTYYADSVKGRFTISRDNAKNTVYLQMNSLKPEDTAVYYCAADNSYRGYHSPYDYWGQGTQVTVSS”, “low polyreactivity”.
For the sequence “QVQLVESVGGLVQAGGSLRLSCAASGFTFSSNAMGWYRQAPGKERELVAAISGTGGSTYYSDSVKVRITISRDNAKNTFYLLMNRLKPDDKAVYYCARVYNFYTSGYDYWGKGTQVTVSS”, the “polyreactivity (PSR sort gate)” value is recorded as “high polyreactivity”.
The result for “QVQLVESGGGLVQAGGSLRLSCAASGFTFGWYAMGWDIQAPGKERELLATISWSGSSTYYADSVKGLFTISRDNAKNTVYLQMNSLKPEDTAVYYCNAVYGGFVVLRYDYWGQGTQVTVSS” reads “high polyreactivity”; that for “QVHLVESGGGLVQAGGSLRLSFAAYGSIFIQYVMGWYRQAPGKERELVAAISRRGGSTYYADSVKGRFTISRDNAKNTVYLHMNSLKPEDTAVYYCAAGSAYSIGYYWGQGTQVTVSS”, “high polyreactivity”.
As for “QVQLVESCGGLVQAGGSLRLSCAASGSIFRYNAMGWYRQAPWKEWELVAAIRSGSGTNYADSVKGRFTISRDNAKNTVFLQMNSLKPEDTAVYYCNAQPWYRTKYDYWGQGNQVTVSS”, the “polyreactivity (PSR sort gate)” value is given as “low polyreactivity”.
Turning to “QDQLVESGGGLVQAGGSLRLSCAASGRTFNYNTMGWYIQAPGKERELVAAINKGGTRTYYADSVKGRFTISRDNAKNTVYLEMNSLKPEDTAVYYCAARLYSYDYWGQGTQVTVSS”, the “polyreactivity (PSR sort gate)” value is “high polyreactivity”.
Take “QVQLVESGGGVVQAGASLRLSCAASGNIFYGYAMGWYRQAPGKERELVARINWSGSRTYYADSVKGRFTISRDNAKNTVYLQMNSLKPEDTAVYYCNTSTSRVPGNGDYWGQGSQVTVSS”: the “polyreactivity (PSR sort gate)” value is on record as “high polyreactivity”.
The result for “QVQLVESGGGLVQAGGSLRLSCAASGLIFRTNAMGGYRQAPGKERELVAAISWSTGTTYYADSVKGRFTISRDIAKNTVYFQMNSVNPEDTAVSYCARTLRWTYRYGYWGQGTQVTVSS” reads “high polyreactivity”.
In the case of “QVQLVESGGGLVHAGGSLRLSCAASGSIFGANVMGWYRQAPGKERELVAAITRSGTRTYYADSVKGRFTISRDNAKNTVYLQMNSLKPEDTAVYYCAAVLRLSTLTTDFGYWGQGTQVTVSS”, the “polyreactivity (PSR sort gate)” value is given as “high polyreactivity”.
To “QVQLVETGGGLVQAGGILRLSCAATGSIFKAYDMGWYRKAPAKERELVAAITWSGGSTYYADSVKGRFTISRHNAKNTVYLQMNSLKPEDTAVYYCAAKLGLWAYYLYDYWGQGTQVTVSS” belongs “low polyreactivity”; to “QVQLVESGGGLVQAGGSLRISCASSGFTFSQYAMGWYRQAPGKERELVAAISSSGGRTYYADSVKGRFTISRDNAKNTVYLQMKSLKPEDTAFFYCAAPGAQGLGLRGAGLDYWGQGTQVTVSS”, “high polyreactivity”.
To “QVQLVESGGGLVQAGGSLRLRCAASGITFKWYAMGWYRQATGKEREFVAIISTRAGSTYYADSVKGRFTISRDNAKNTVSLQMNSLIPEDSAVYYCNAVRSRGLHRRGDFDYWGQGTQVTVSS” belongs “high polyreactivity”; to “QVQLVESGVGLVQARGSLRLSCAASGYIFTIYAMGWYRHAPGKERELVAAITWSGATTYYADSVKGRFTISRDNAKNTVYLQMNILKPEDTAVYYCNADYWHYYEDYDSWGQGTQVTVSS”, “low polyreactivity”.
To “QVQLVESGGGLVQAGGSLRISCAASGRIFYFNGMGWYRQAPGKERELVAAITSGGSTYYADSVKGRFTISRDNAKNTVYLQMNSLKPEDTAVYYCAAQNAWWSNGRSYDYWGQGTQVTVSS” belongs “low polyreactivity”.
Take “QVQLVESGGGLVQAGGSLRLSSAASGRTGVNAMGWDRHAPGKERELGAAINNGDSTYYADSVKGRFTISRDNAKNTVYLQMNSLTPEDTAVYDCAAGLDEGDYWQESDYWGQGTQVTVSS”: the “polyreactivity (PSR sort gate)” value is reported as “low polyreactivity”.
In the case of “QVQLVESGGGLVQAGGSLRLSCAASGRIFRWYAMGWYRQAPGKERELVAAISYSGGSTYYADSVKGRFTISRDNAKNTVYLQMNSLKPEDTAVYYCAAATYYKFDYWGQGTQVTVSW”, the “polyreactivity (PSR sort gate)” value is given as “high polyreactivity”.
To “QVQRVESGGGIVQAGGSLRLTCAASGITFVSYTIGWSRQAPGKEREFVAAITWNVASTYYADSVKGRFTISRDNAKNTVYLQMNSLKPEDTAVYYCAAYSRFTSDYWGQGTQVTVSS” belongs “high polyreactivity”; to “QVQLVESGGGLVQAGGSLRLSCAASGSTFYGYAMGWYRQAPGKERELVAAISWRGGRTNYADSVKGRFTISRDNAKNTVYLQMNSLKPEDTAFYYCAARSYGITDYGMYSWGQGTQVTVSS”, “high polyreactivity”; to “QVQLVESGGGLVQAGGSLRLSCAGYGRIFEDNSMVSYRQPPGKERELVAAISSGDSTKYADSVKGRFTISRDNAKTTVYLQIKSLKQEDTAVYYCAAERNHGLVGSESVGRNVYWGHGTQVTVSS”, “low polyreactivity”.
To “QVQLVESGGGLVQAGGSLRLSCAPSGRIFQWYAMGWYRQAPGKERELVAAIRNGGTTNYADSVKGRFTISRDNAKNTVYLQMNSVIPVDTAVYYCNADKYRTWDFQPRYPGGYWGQGTQVTVSS” belongs “low polyreactivity”; to “QVQLVESGGGLVQAGGSLRLSCAASGSTIADNAMGWYRQAPGKERELVAAITRSGVRTYYADSVKGRFTISRDNAKYTVYLQMNSLKPDDSAVYYCAKRTYPSRIYDYWGQGTQVTVSS”, “low polyreactivity”; to “QVQRVESAGCLVQAGVSLRLSCPPSRRIFSRYAIGWYRQAPGKERELVAAISWSGGSTYYADSVKGRFTISRDNAMNTVYLQLIILKPEDTAVYYCAARRSYSYGSWGQGTQVTVSS”, “high polyreactivity”.
The result for “QVQHVESGGGLVQAGGSLRLSCAASGRTFHWYAMGWYRQAPGKERELVAAIRYSAGSTYYADSVKGRFTISRDNAKNTVYLQMNSLKPEDTAVYYCAARPPYTDSSPGERTYDYWGQGTQVTVSS” reads “low polyreactivity”; that for “QVQLLESGGGLFQPGGSLRLSCAASGRTFDGNVMGWYRQAPGKETELVAAITASGGRTYYADSVKGRFTISSDNAKNTVYLQMNSLKAEDTAVYYCNAGIRRSRGTMDYWGQGTQVTVSS”, “high polyreactivity”.
Consider “QVQLVESGGGLVQAGGSLRISCDASGYIFGWNSMGWYRQAPGKERELVAAISSSGGNTYYADSVKGRFTISRDNAKNTVYLQMNSLKPEDTAVYYCARSYPYRYDYWGQGTQVTVSS”, for which the “polyreactivity (PSR sort gate)” value is “low polyreactivity”.
For the sequence “QVQLEESGGGLVQAGGSLRLSCAASGFIFWANAMGWYRQAPGKERELVAAIRYSGGRTYYADSVKGRFTSSRDTAKNTFFLLMNSLIPEDTAVYYCAKEYKNYGGFVVEYDYWGQGTQVNVSS”, the “polyreactivity (PSR sort gate)” value is “low polyreactivity”.
To “QVQLVESGGGLVQAGGSLRLICAASGNTFNVYAMVWYRHAPGKERELVAAITLSGGSTYYADSVKGRFTISRDNAKNTVYLQMNSLKPEDTAVYYCNAEDDGTDYDYWGQGTQVTVSS” belongs “low polyreactivity”; to “QVQLVESGGGLVQAGGSLRLSCAASGFTYRSYTMGWYRQAPGKERELVAAITSRGTSTYYADSVKGRFTISRDNAKNTVYLQMNSLKPEDTALYYCNAARPGKNYDSWGQGTQVTVSS”, “high polyreactivity”.
In the case of “QVQLVESGGGLVQAGGSLRLSCAASGFTFYLYAMGWYRHAPGKERELVAAISVDGGSTYYADSVKGRFTISRDNAKNTVYLQMNSLKPEDTAVYYCAARLYGRYRYDYWGQGTQVTVSS”, the “polyreactivity (PSR sort gate)” value is reported as “low polyreactivity”.
As for “QVQLVESGGGLVQAGGSLRLSCAVSGGLFSFYAMGWYRQAPGKERELVAAISSGGTTYYADSVKGRFTISRDNAKNTVYLQMNSLKPEDTAVYYCALLVGHNYWGQGTQVTVSS”, the “polyreactivity (PSR sort gate)” value was “low polyreactivity”.
As for “QVQLVESGGGLVQAGASLRLSCAASGIIFYANAMGWYRQAPGTERELVAAITFSGGSTYYADSVKGRFTISRDNAKNTVYLQMNSLKPEDTAVYYCAADKRFIPPHPHPLEFDYWGQGTQVTVSS”, the “polyreactivity (PSR sort gate)” value is “low polyreactivity”.
To “QVQLVESGGGLVQAGGSLRLSCAASGGIFYDYAMGWYRQAPGKERELVAAISQSGGSTYYADSVKGRFTISRDNAKNTVYLQMNSLKPEDTAVYYCAADYLDSTYGYVYGWDDSWGQGTQVTVSS” belongs “low polyreactivity”.
To “QVQLVESGGGLVQAGGSLRLSCAASGRTFVTNAMGWYRQAPGKERELVAAISGTGGSTYYADSVKGRFTISRDNAKNTVYLQMNSLKPEDTAVYYCNKDYHVRYYYWGQGTLVTVSS” belongs “low polyreactivity”.
Turning to “QVQLVESGGGLVQAGGPLRLSCAASGRIVWNAMGWYRQAPGKEREFVASITWSVGSTYYADSVKGRFTISRDNAKNTVYLQMNSLKPEDTAVYYCAADSYSGYYYWGQGTQVTVSS”, the “polyreactivity (PSR sort gate)” value was “high polyreactivity”.
For the sequence “QVQLVESGGGLVQAGGSLRLSCAPSGRIFPGYAMGWYRQAPGKERELVAAISTNGGRTYYADSVKGRFTISRDNAKNTVYLQMNSLKPEDTAVYYCNAARAVYTQKRFDSWGQGTQVTVSS”, the “polyreactivity (PSR sort gate)” value was “high polyreactivity”.
For the sequence “QVQLVESGGGLVQAGGSLRLSCAASGRIFNYYAMGWYRQAPGKEREFVAAITRSGGRTYYADSVKGRFTISRDNAKNTVYLQMNSLKPEDPAVYYCAAGRYVWREYYYWGQGTQVTVSS”, the “polyreactivity (PSR sort gate)” value is “high polyreactivity”.
Turning to “QVQLVESGGGLVQAGGSLRLSCAASGSIFIVYAMGWYRQAPGKERELVATITSGGSTNYADSVKGRFTISRDNAKNTVYLQMNSLKPEDTAVYYCAAESYWGSGVVPGYDYWGQGTQVTVSS”, the “polyreactivity (PSR sort gate)” value was “low polyreactivity”.
To “QVQLVESGGGLVQAGGSLRLSCAASGFIIYRNPMGWYRQAPGKERELVAGISSGGSTNYADSVKGRFTISRDNEKNTVYLQMNSLKPEDTAVYYCASRVYALWFGRYDYWGQGTQVIVSS” belongs “high polyreactivity”.

(Values after the nanobody polyreactivity screen of Harvey et al. (2022).)
